Source: patent US20240156870A1 (NATIONAL RESEARCH COUNCIL OF CANADA, published 2024)
One block for each molecule: values may come before it.

Assays:
[1] = molecular target: T1, human EGFR, native, on the cell surface (human, UniProt P00533 25-1210); experiment: Mirrorball microplate cytometry, adherent MDA-MB-468 cells
T1 construct: MCF7 is EGFR-low and serves as low-expression control; also called native cell-surface EGFR

[2] = molecular target: T2, human EGFR-Fc fusion protein (human, UniProt P00533 25-645); experiment: SPR single-cycle, VHH over amine-coupled human EGFR-Fc
T2 construct: Bought; not shown: Fc part of the bought fusion

[3] = molecular target: recombinant human EGFRvIII ectodomain (human) (UniProt P00533); experiment: SPR multi-cycle, VHH over amine-coupled EGFRvIII ectodomain
[4] = molecular target: recombinant 6xHis-tagged human EGFR ectodomain (human) (UniProt P00533); experiment: SPR multi-cycle, VHH over amine-coupled EGFR ectodomain
[5] = molecular target: T2, human EGFR-Fc fusion protein; experiment: SPR, VHH over human EGFR-Fc;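 also: Single-cycle kinetics on Biacore T200 at 25 °C in HBS-EP, monomeric VHHs at 0.6–50 nM flowed over immobilized EGFR, 180 s association, 600 s dissociation, ethanolamine-blocked reference cell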
Method: (§1) In the second SPR experiment, single-cycle kinetic analyses were performed on a Biacore™ T200 instrument (GE Healthcare) at 25° C. in HBS-EP buffer. […] An ethanolamine-blocked flow cell served as the reference. Monomeric VHHs at concentrations ranging from 0.6 to 50 nM were injected over the EGFR surfaces in HBS-EP buffer at a flow rate of 40 μL/min. The contact time was 180 s and the dissociation time was 600 s. The EGFR surfaces were regenerated using a 10 s pulse of 10 mM glycine, pH 1.5.

[6] = molecular target: T1, human EGFR, native, on the cell surface; experiment: Mirrorball microplate cytometry, serial dilution, AF488 anti-human Fc; the cell line is not named in the legend of FIG. 5D (paragraph 463 treats it with the MDA-MB-468 assay of FIG. 5B)
[7] = molecular target: T3, mouse EGFR-Fc fusion protein (mouse, UniProt Q01279 25-647); experiment: ELISA, VHH titrated from about 0.5 to 1000 ng/mL, OD 450 nm
T3 construct: Bought; not shown: Fc part of the bought fusion

[8] = molecular target: T2, human EGFR-Fc fusion protein; experiment: as above
[9] = molecular target: T4, rhesus EGFR-Fc fusion protein (rhesus, UniProt P55245 25-645); experiment: as above
T4 construct: Bought; not shown: Fc part of the bought fusion

[10] = molecular target: T4, rhesus EGFR-Fc fusion protein; experiment: SPR single-cycle, VHH over amine-coupled rhesus EGFR-Fc
Method: as §1

[11] = molecular target: T5, recombinant 6xHis-tagged human EGFR ectodomain (human, UniProt P00533 25-645); experiment: SPR multi-cycle, VHH over amine-coupled EGFR ectodomain
T5 construct: extracellular domain; Bought; also called recombinant human EGFR; EGFR extracellular domain; not shown: 6xHis tag

[12] = molecular target: T3, mouse EGFR-Fc fusion protein; experiment: SPR single-cycle, VHH over amine-coupled mouse EGFR-Fc
Method: as §1

[13] = molecular target: T4, rhesus EGFR-Fc fusion protein; experiment: SPR single-cycle, VHH over amine-coupled rhesus EGFR-Fc; remark: listed apart in the source
Method: as §1

[14] = molecular target: T5, recombinant 6xHis-tagged human EGFR …; experiment: SPR (value of Table 2 repeated in Table 6)
Method: In the first SPR experiment, multi-cycle kinetic analyses were performed on a Biacore™ 3000 instrument (GE Healthcare) at 25° C. in HBS-EP buffer [10 mM HEPES, pH 7.4, containing 150 mM NaCl, 3 mM EDTA and 0.005% (w/v) surfactant P20]. […] An ethanolamine-blocked flow cell served as the reference. Monomeric VHHs at concentrations ranging from 0.1 to 100 nM were injected over the EGFR and EGFRvIII surfaces in HBS-EP buffer at a flow rate of 20 μL/min. […] Contact times were 180-300 s and dissociation times were 300-600 s.

EC50 [1]: 279 nM
Molecule: EG2-Fc (Fc fusion)

Kd [2]: 11.1 nM
kon [2]: 850000 M⁻¹ s⁻¹
Kd [3]: 14.6 nM
kon [3]: 1.2e+06 M⁻¹ s⁻¹
Kd [4]: 19.1 nM
Molecule: EG2 VHH

Kd [5]: 1.4 nM
koff [5]: 0.00026 s⁻¹
kon [5]: 200000 M⁻¹ s⁻¹
B1: NRC-sdAb033-H2 (VHH)
VHH: QVQLVESGGGVVQPGRSLRLSCAASESIDSIYVMQWYRQAPGKGLEVVATLTPGGGSYYPDSVKGRFTISRDNSKNTLYLQMNSLRAEDTAVYYCNAFHRLRGTHYWGQGTLVTVSS
notes: Humanized variant H2 of NRC-sdAb033

Kd [5]: 1.7 nM
koff [5]: 0.00022 s⁻¹
kon [5]: 130000 M⁻¹ s⁻¹
B2: NRC-sdAb033-H1 (VHH)
VHH: QVQLVESGGGVVQPGRSLRLSCAASESIDSIYVMQWYRQAPEKGLDVVATLTPGGGSYYPESVKGRFTISRDNSKNTLYLQMNSLRAEDTAVYYCNAFHRLRGTHYWGQGTLVTVSS
notes: Humanized variant H1 of NRC-sdAb033

Kd [5]: 6.2 nM
koff [5]: 0.00058 s⁻¹
kon [5]: 93000 M⁻¹ s⁻¹
B3: NRC-sdAb028-H1 (VHH)
VHH: QVQLVESGGGVVQPGRSLRLSCTVSGSFFSRDAMGWHRQAPGKGLEMVAGISSGGLSNHAESVKGRFTISRDNSKNTLYLQMNSLRAEDTAVYYCSIYEDGVWTSWGQGTLVTVSS
notes: Humanized variant H1 of NRC-sdAb028

EC50 [1]: 86 nM
B4: NRC-sdAb028-Fc (Fc fusion)
chain: EVQLVESGGGLVQPGGSLRLSCTVSGSFFSRDAMGWHRQAPGKQREMVAGISSGGLSNHAESVKGRFTISRDNSKNTVYLQMNNLKPEDTAVYYCSIYEDGVWTSWGQGTQVTVSS
notes: Bivalent VHH-human IgG1 Fc fusion from HEK293-6E cells; not shown: human IgG1 Fc

EC50 [6]: 2.1 nM
B5: NRC-sdAb032/NRC-sdAb028-Fc (Fc fusion)
chain 1: QVKLEESGGGLVQPGGSLRLSCSASGSISSISVMGWYRQAPGKQRELVARITSGGISNYVDSVKGRFTISGDSAKNIVYLQMNSLKPEDTAVYYCYMYVHVGYWVDYWGQGTQVTVSS
chain 2: EVQLVESGGGLVQPGGSLRLSCTVSGSFFSRDAMGWHRQAPGKQREMVAGISSGGLSNHAESVKGRFTISRDNSKNTVYLQMNNLKPEDTAVYYCSIYEDGVWTSWGQGTQVTVSS
notes: Member of the group m26; also called NRC-sdAb032/028-Fc; biparatopic heterodimeric VHH/VHH-Fc

Kd [2]: 1.8 nM
koff [2]: 0.00016 s⁻¹
kon [2]: 90000 M⁻¹ s⁻¹
Kd [5]: 1.8 nM
koff [5]: 0.00016 s⁻¹
kon [5]: 90000 M⁻¹ s⁻¹
EC50 (read off the curve) [7]: ~0.02 µg/mL
EC50 (read off the curve) [8]: ~0.02 µg/mL
EC50 (read off the curve) [9]: ~0.02 µg/mL
koff [10]: 0.00011 s⁻¹
kon [10]: 110000 M⁻¹ s⁻¹
Kd [11]: 1.1 nM
koff [11]: 0.00017 s⁻¹
kon [11]: 150000 M⁻¹ s⁻¹
Kd [12]: 3.1 nM
koff [12]: 0.00028 s⁻¹
kon [12]: 92000 M⁻¹ s⁻¹
Kd [13]: 1 nM
B6: NRC-sdAb033 (VHH)
VHH: QVQLVESGGGLVQPGGSLRLSCAASESIDSIYVMQWYRQAPEKPRDVVATLTPGGGSYYPEAVLGRFTISRDDAKNTVYLQMNSLKPEDTAVYYCNAFHRLRGTHYWGQGTQVTVSS
notes: Monomeric llama VHH; in ELISA a version with biotin acceptor peptide and 6xHis was used; also called EVE48; not shown: C-terminal c-Myc and 6xHis tags

EC50 [1]: 49 nM
B7: NRC-sdAb033-Fc (Fc fusion)
chain: QVQLVESGGGLVQPGGSLRLSCAASESIDSIYVMQWYRQAPEKPRDVVATLTPGGGSYYPEAVLGRFTISRDDAKNTVYLQMNSLKPEDTAVYYCNAFHRLRGTHYWGQGTQVTVSS
notes: as for B4

EC50 [6]: 1.8 nM
B8: NRC-sdAb032/NRC-sdAb033-Fc (Fc fusion)
chain 1: QVKLEESGGGLVQPGGSLRLSCSASGSISSISVMGWYRQAPGKQRELVARITSGGISNYVDSVKGRFTISGDSAKNIVYLQMNSLKPEDTAVYYCYMYVHVGYWVDYWGQGTQVTVSS
chain 2: QVQLVESGGGLVQPGGSLRLSCAASESIDSIYVMQWYRQAPEKPRDVVATLTPGGGSYYPEAVLGRFTISRDDAKNTVYLQMNSLKPEDTAVYYCNAFHRLRGTHYWGQGTQVTVSS
notes: Member of the group m26; also called NRC-sdAb032/033-Fc; biparatopic heterodimeric VHH/VHH-Fc

EC50 [1]: 0.5 nM
EC50 [6]: 0.9 nM
B9: NRC-sdAb032-Fc (Fc fusion)
chain: QVKLEESGGGLVQPGGSLRLSCSASGSISSISVMGWYRQAPGKQRELVARITSGGISNYVDSVKGRFTISGDSAKNIVYLQMNSLKPEDTAVYYCYMYVHVGYWVDYWGQGTQVTVSS
notes: Bivalent VHH-human IgG1 Fc fusion from HEK293-6E cells; also called homodimeric NRC-sdAb032-Fc; not shown: human IgG1 Fc

Kd [3]: 25 nM
koff [3]: 0.0068 s⁻¹
kon [3]: 270000 M⁻¹ s⁻¹
Kd [11]: 15.4 nM
koff [11]: 0.0056 s⁻¹
kon [11]: 360000 M⁻¹ s⁻¹
B10: NRC-sdAb026 (VHH)
VHH: QVQLVESGGALVQPGGSLRLSCSASGVIFGINTLAWHRQAPGKEREWVALISNAGSTKYAGSVKGRFTISRDNDKNTVYLQMDSLKPEDTAVYYCNYVPPSPAWGQGTQVTVSS
notes: Monomeric llama VHH; also called EGFR6; not shown: C-terminal c-Myc and 6xHis tags

Kd [3]: 2.3 nM
koff [3]: 0.00086 s⁻¹
kon [3]: 380000 M⁻¹ s⁻¹
Kd [11]: 1.6 nM
koff [11]: 0.00079 s⁻¹
kon [11]: 510000 M⁻¹ s⁻¹
Kd [14]: 1.6 nM
B11: NRC-sdAb027 (VHH)
VHH: QVKLEESGGGLVQPGGSLKLSCAVSGFAFERNGVSWYRQAPGKQREFVAVISSGTTTYKDSVKGRFTISRDNTRNTAYLQMNNLKPEDTAVYYCNLIPPTPYWGQGTQVTVSS
notes: Monomeric llama VHH; also called EGFR7; not shown: C-terminal c-Myc and 6xHis tags

EC50 [1]: 67 nM
B12: NRC-sdAb022-Fc (Fc fusion)
chain: QVQLVESGGGLVQPGGSLKLSCAVSGFAFERNGVSWYRQAPGKQREFVAVISSGTTTYKDSVKGRFTISRDNTRNTAYLQMNNLKPEDTAVYYCNLVPPTPYWGQGTQVTVSS
notes: as for B4

EC50 [6]: 1.6 nM
B13: NRC-sdAb032/NRC-sdAb022-Fc (Fc fusion)
chain 1: QVKLEESGGGLVQPGGSLRLSCSASGSISSISVMGWYRQAPGKQRELVARITSGGISNYVDSVKGRFTISGDSAKNIVYLQMNSLKPEDTAVYYCYMYVHVGYWVDYWGQGTQVTVSS
chain 2: QVQLVESGGGLVQPGGSLKLSCAVSGFAFERNGVSWYRQAPGKQREFVAVISSGTTTYKDSVKGRFTISRDNTRNTAYLQMNNLKPEDTAVYYCNLVPPTPYWGQGTQVTVSS
notes: Member of the group m26; also called NRC-sdAb032/022-Fc; biparatopic heterodimeric VHH/VHH-Fc

Kd [5]: 16.6 nM
koff [5]: 0.01 s⁻¹
kon [5]: 620000 M⁻¹ s⁻¹
B14: NRC-sdAb032-H1 (VHH)
VHH: QVQLVESGGGLVQPGRSLRLSCSASGSISSISVMGWYRQAPGKGLELVARITSGGISNYVDSVKGRFTISRDSNSKNTLYLQMNSLRAEDTAVYYCYMYVHVGYWVDYWGQGTLVTVSS
notes: Humanized variant H1 of NRC-sdAb032

Kd [3]: 40.4 nM
koff [3]: 0.0098 s⁻¹
kon [3]: 240000 M⁻¹ s⁻¹
Kd [11]: 38.5 nM
koff [11]: 0.012 s⁻¹
kon [11]: 310000 M⁻¹ s⁻¹
Kd [14]: 38.5 nM
B15: NRC-sdAb021 (VHH)
VHH: QVQLVESGGGLVQPGGSLRLSCSVSLSDFGSKHLAWHRQAPGKEREWVALIFSSGATNYANSVKGRFTISRDNSKNTVYLQMNSLKPEDTAVYYCNLVPPSPAWGQGTQVTVSS
notes: Monomeric llama VHH purified from E. coli periplasm; also called EGFR1; not shown: C-terminal c-Myc and 6xHis tags

Kd [3]: 19.4 nM
Kd [11]: 12.6 nM
koff [11]: 0.0057 s⁻¹
kon [11]: 460000 M⁻¹ s⁻¹
B16: NRC-sdAb023 (VHH)
VHH: QVQLVESGGGLVQPGGSLRLSCTASGIIFSRNGVSWYRQAPGKEREFVAVITLSGTTTYKDSVKGRFTISRDNTRNTGYLQMNNLKPEDTAVYYCNLVPPTSYWGQGTQVTVSS
notes: Monomeric llama VHH; also called EGFR3; not shown: C-terminal c-Myc and 6xHis tags

Kd [3]: 4.9 nM
koff [3]: 0.0009 s⁻¹
kon [3]: 180000 M⁻¹ s⁻¹
Kd [11]: 2.9 nM
koff [11]: 0.00073 s⁻¹
kon [11]: 250000 M⁻¹ s⁻¹
B17: NRC-sdAb024 (VHH)
VHH: QVQLVESGGGLVQPGGSLRLSCAASGSSLYINAMTWYRQAPGEQREFVAIISRGGDTKYSDSVKGRFSISIDNAKNTVYLQMNSLKAEDTAVYYCNAVPPFPNWGQGTQVTVSS
notes: Monomeric llama VHH; also called EGFR4; not shown: C-terminal c-Myc and 6xHis tags

Kd [3]: 2.8 nM
koff [3]: 0.00071 s⁻¹
kon [3]: 260000 M⁻¹ s⁻¹
Kd [11]: 1.7 nM
koff [11]: 0.00059 s⁻¹
kon [11]: 360000 M⁻¹ s⁻¹
B18: NRC-sdAb025 (VHH)
VHH: QVQLVESGGGLVQPGGSLRLSCAASGSSLTINAMTWYRQAPGDEREFVAIVYRGGGTKYADSVKGRFSISIDNAKNTVYLQMNSLKAEDTAVYYCNAVPPFPNWGQGTQVTVSS
notes: Monomeric llama VHH; also called EGFR5; not shown: C-terminal c-Myc and 6xHis tags
